In publication PMC12559223, “Structural basis of apoptosis induction by the mitochondrial voltage-dependent anion channel” (Nature Communications, 2025):
Blank lines part the entries; values can stand above or below the molecule they belong to. Positions of bridges follow the written chain, without caps; N, C: chain ends. Non-standard residues stand in square brackets, D forms with d. Residues, ends and D or L forms follow the SMILES beside them. S5 = C=CCCC[C@](C)(N)C(=O)O

Tests used:
BclxLΔLT = target: T1, BclxLΔLT (Homo sapiens, UniProt Q07817, DEL45-84); test: NMR-detected affinity measurement, alanine scanning of VDAC1-N peptides; type: binding; conditions: NMR CSP titration into 100 µM 2H,15N BclxLΔLT, 20 mM NaPi pH 7.0, 50 mM NaCl; one-site model; mean of individual NMR resonances as probes (n = 3)
T1 construct: BclxLΔLT (residues 1–44 and 85–213); inferred from Ni-NTA purification; made in house; host or cells: E. coli BL21 (DE3)
Excerpt: The resulting chemical shift perturbation was plotted against the peptide concentration to extract KD values for each peptide using a one-site binding model using OriginPro (OriginLab) for data fitting.

Bak-BclxL complex = test: Liposome permeabilization (pore-forming) assay, cBid-activated Bak inhibited by BclxL; type: biochemical, human; conditions: increasing concentrations of peptide (10-100 µM); 50 nM BakΔTM, 40 nM cBid, 50 nM BclxLΔTM
[1] = target: human BclxLΔLT (BclxL without the flexible loop and the transmembrane helix) (human) (UniProt Q07817); test: ITC; MicroCal PEAQ-ITC, 20 °C; BclxLΔLT in the cell (250 µM for the linear, 50 µM for the stapled peptide), peptide in the syringe (500 µM stapled); 10 mM NaPi pH 7.0, 50 mM NaCl, 0.5 mM EDTA, 1 mM DTT
[2] = target: human BclxLΔTM (soluble domain of BclxL, transmembrane helix deleted) (human) (UniProt Q07817)
[3] = target: T2, human BclxLΔLT (BclxL without the flexible loop and the transmembrane helix), Q07817-1; test: NMR-detected affinity measurements (alanine scanning); conditions: chain shown with the change;; parent: est. 0.2 mM; read off a plot
T2 chain: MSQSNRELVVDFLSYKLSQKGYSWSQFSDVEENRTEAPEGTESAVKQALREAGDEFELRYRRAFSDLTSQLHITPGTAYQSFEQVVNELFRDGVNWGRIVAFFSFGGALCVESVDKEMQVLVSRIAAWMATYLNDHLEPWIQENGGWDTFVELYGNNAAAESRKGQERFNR

[4] = target: human BclxLΔTM (soluble domain of BclxL, transmembrane helix deleted) (human) (UniProt Q07817); remark: listed apart in the source
[5] = target: T3, human BclxLΔLT (BclxL without the flexible loop and the transmembrane helix) (human, UniProt Q07817-1 1-212, flexible loop (residues 44–84) deleted); test: crystal structure; single-chain BclxLΔLT-VDAC1-N construct, crystal from 1.6 M ammonium sulfate, 0.1 M bicine pH 9.0, 292 K; 1.95 Å; conditions: both partners purified
T3 construct: BclxL, human, residues 1-43 and 85-212 (flexible loop 44-84 and transmembrane helix deleted); the NMR methods say 1-44 and 85-213; Isotope-labelled for NMR; In the crystal it stood fused to VDAC1-N(1-26) on one chain; source: E. coli BL21 (DE3), purified (Ni-NTA, SEC)

[6] = target: T4, human BclxLΔTM (soluble domain of BclxL, transmembrane helix deleted) (human, UniProt Q07817-1 1-212); test: NMR titration; 100 µM 15N-labelled VDAC1-N peptide with a 5-fold excess of unlabelled BclxLΔTM; 20 mM NaPi pH 7.0, 50 mM NaCl, 303 K, 500 MHz; conditions: both partners purified
T4 construct: BclxL, human, soluble domain without the transmembrane helix, residues 1-212 (the NMR methods say 1-213); 2H,15N-labelled where it was the observed species in NMR; source: E. coli BL21 (DE3), purified (Ni-NTA, SEC)

[7] = target: human BclxLΔLT (BclxL without the flexible loop and the transmembrane helix) (human, UniProt Q07817-1 1-212, flexible loop (residues 44–84) deleted); test: NMR
[8] = target: human BclxLΔLT (BclxL without the flexible loop and the transmembrane helix) (human) (UniProt Q07817); test: NMR titration; alanine scan: VDAC1-N peptides titrated into 100 µM 2H,15N-BclxLΔLT; 20 mM NaPi pH 7.0, 50 mM NaCl, 0.5 mM EDTA, 5 mM DTT; KD from chemical shift perturbations, one-site binding model

T1 sequence (Q07817 with tags, fused parts or gaps DEL45-84 limits assumed): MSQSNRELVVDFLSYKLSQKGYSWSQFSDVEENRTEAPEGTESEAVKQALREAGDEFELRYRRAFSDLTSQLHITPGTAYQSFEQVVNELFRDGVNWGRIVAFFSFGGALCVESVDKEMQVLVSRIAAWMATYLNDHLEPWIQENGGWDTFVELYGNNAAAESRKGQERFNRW

Kd [1]: 2 µM
Molecule: hydrocarbon-stapled VDAC1 peptide encompassing residues 7–21 (stVDAC1-N) (from UniProt P21796 7-21)

Kd [3]: 400 µM
B1: wild-type VDAC1-N peptide of the alanine scanning set Y7A (peptide)
chain: MAVPPTAADLGKSARDVFTKGYGF

Kd [3]: 1200 µM
B2: wild-type VDAC1-N peptide of the alanine scanning set D16A (peptide)
chain: MAVPPTYADLGKSARAVFTKGYGF

Kd [3]: 500 µM
B3: wild-type VDAC1-N peptide of the alanine scanning set G11A (peptide)
chain: MAVPPTYADLAKSARDVFTKGYGF

Kd [3]: 200 µM
B6: wild-type VDAC1-N peptide of the alanine scanning set T19A (peptide)
chain: MAVPPTYADLGKSARDVFAKGYGF

Kd [3]: 300 µM
B7: wild-type VDAC1-N peptide of the alanine scanning set F18A (peptide)
chain: MAVPPTYADLGKSARDVATKGYGF

Kd [3]: 1000 µM
B8: wild-type VDAC1-N peptide of the alanine scanning set D9A (peptide)
chain: MAVPPTYAALGKSARDVFTKGYGF

Kd [3]: 400 µM
B9: wild-type VDAC1-N peptide of the alanine scanning set S13A (peptide)
chain: MAVPPTYADLGKAARDVFTKGYGF

Kd [3]: 600 µM
B10: wild-type VDAC1-N peptide of the alanine scanning set V17A (peptide)
chain: MAVPPTYADLGKSARDAFTKGYGF

Kd [7]: ~9000 µM
Kd [3]: 4000 µM
fold reduction in affinity against wild-type VDAC1-N [8]: 20 fold
B11: VDAC1-N L10A peptide (peptide)
chain: MAVPPTYADAGKSARDVFTKGYGF

Further lines, the molecule ahead of its results:

Molecule: CC(C)C[C@H](NC(=O)[C@H](CC(=O)O)NC(=O)[C@H](C)NC(=O)[C@H](C)N)C(=O)NCC(=O)N[C@@H](CCCCN)C(=O)N[C@@H](CO)C(=O)N[C@@H](C)C(=O)N[C@@H](CCCNC(=N)N)C(=O)N[C@@H](CC(=O)O)C(=O)N[C@H](C(=O)N[C@@H](Cc1ccccc1)C(=O)N[C@H](C(=O)N[C@@H](CCCCN)C(=O)NCC(=O)O)[C@@H](C)O)C(C)C [Y7A] (H-AADLGKSARDVFTKG-OH)
Kd (BclxLΔLT): 446 µM

Molecule: CC(C)C[C@H](NC(=O)[C@H](CC(=O)O)NC(=O)[C@H](C)NC(=O)[C@@H](N)Cc1ccc(O)cc1)C(=O)N[C@@]1(C)CCCC=CCCC[C@@](C)(C(=O)N[C@@H](CC(=O)O)C(=O)N[C@H](C(=O)N[C@@H](Cc2ccccc2)C(=O)N[C@H](C(=O)N[C@@H](CCCCN)C(=O)NCC(=O)O)[C@@H](C)O)C(C)C)NC(=O)[C@H](C)NC(=O)[C@H](CO)NC(=O)[C@H](CCCCN)NC1=O [stVDAC1-N] (H-YADL[S5]KSA[S5]DVFTKG-OH; staple 5-9; N-terminus and C-terminus assumed)
effect on pore-forming activity of BclxL-inhibited Bak (in words) (Bak-BclxL complex): concentration-dependent rescue of the pore-forming activity of Bak

Molecule: CC(C)C[C@H](NC(=O)[C@H](CC(=O)O)NC(=O)[C@H](C)NC(=O)[C@@H](N)Cc1ccc(O)cc1)C(=O)NCC(=O)N[C@@H](CCCCN)C(=O)N[C@@H](C)C(=O)N[C@@H](C)C(=O)N[C@@H](CCCNC(=N)N)C(=O)N[C@@H](CC(=O)O)C(=O)N[C@H](C(=O)N[C@@H](Cc1ccccc1)C(=O)N[C@H](C(=O)N[C@@H](CCCCN)C(=O)NCC(=O)O)[C@@H](C)O)C(C)C [S13A] (H-YADLGKAARDVFTKG-OH)
Kd (BclxLΔLT): 408 µM

Molecule: CC(C)C[C@H](NC(=O)[C@H](CC(=O)O)NC(=O)[C@H](C)NC(=O)[C@@H](N)Cc1ccc(O)cc1)C(=O)NCC(=O)N[C@@H](CCCCN)C(=O)N[C@@H](CO)C(=O)N[C@@H](C)C(=O)N[C@@H](CCCNC(=N)N)C(=O)N[C@@H](CC(=O)O)C(=O)N[C@H](C(=O)N[C@@H](C)C(=O)N[C@H](C(=O)N[C@@H](CCCCN)C(=O)NCC(=O)O)[C@@H](C)O)C(C)C [F18A] (H-YADLGKSARDVATKG-OH)
Kd (BclxLΔLT): 367 µM

Molecule: CC(C)C[C@H](NC(=O)[C@H](CC(=O)O)NC(=O)[C@H](C)NC(=O)[C@@H](N)Cc1ccc(O)cc1)C(=O)NCC(=O)N[C@@H](CCCCN)C(=O)N[C@@H](CO)C(=O)N[C@@H](C)C(=O)N[C@@H](CCCNC(=N)N)C(=O)N[C@@H](CC(=O)O)C(=O)N[C@H](C(=O)N[C@@H](Cc1ccccc1)C(=O)N[C@H](C(=O)N[C@@H](CCCCN)C(=O)NCC(=O)O)[C@@H](C)O)C(C)C [VDAC1 wt]
Kd (BclxLΔLT): 165 µM

Molecule: CC(C)C[C@H](NC(=O)[C@H](CC(=O)O)NC(=O)[C@H](C)NC(=O)[C@@H](N)Cc1ccc(O)cc1)C(=O)N[C@@H](C)C(=O)N[C@@H](CCCCN)C(=O)N[C@@H](CO)C(=O)N[C@@H](C)C(=O)N[C@@H](CCCNC(=N)N)C(=O)N[C@@H](CC(=O)O)C(=O)N[C@H](C(=O)N[C@@H](Cc1ccccc1)C(=O)N[C@H](C(=O)N[C@@H](CCCCN)C(=O)NCC(=O)O)[C@@H](C)O)C(C)C [G11A] (H-YADLAKSARDVFTKG-OH)
Kd (BclxLΔLT): 609 µM

Molecule: CC(C)C[C@H](NC(=O)[C@H](CC(=O)O)NC(=O)[C@H](C)NC(=O)[C@@H](N)Cc1ccc(O)cc1)C(=O)NCC(=O)N[C@@H](CCCCN)C(=O)N[C@@H](CO)C(=O)N[C@@H](C)C(=O)N[C@@H](CCCNC(=N)N)C(=O)N[C@@H](C)C(=O)N[C@H](C(=O)N[C@@H](Cc1ccccc1)C(=O)N[C@H](C(=O)N[C@@H](CCCCN)C(=O)NCC(=O)O)[C@@H](C)O)C(C)C [D16A] (H-YADLGKSARAVFTKG-OH)
Kd (BclxLΔLT): 1260 µM

Molecule: CC(C)C[C@H](NC(=O)[C@H](CC(=O)O)NC(=O)[C@H](C)NC(=O)[C@@H](N)Cc1ccc(O)cc1)C(=O)NCC(=O)N[C@@H](CCCCN)C(=O)N[C@@H](CO)C(=O)N[C@@H](C)C(=O)N[C@@H](CCCNC(=N)N)C(=O)N[C@@H](CC(=O)O)C(=O)N[C@@H](C)C(=O)N[C@@H](Cc1ccccc1)C(=O)N[C@H](C(=O)N[C@@H](CCCCN)C(=O)NCC(=O)O)[C@@H](C)O [V17A] (H-YADLGKSARDAFTKG-OH)
Kd (BclxLΔLT): 713 µM

Molecule: CC(C)[C@H](NC(=O)[C@H](CC(=O)O)NC(=O)[C@H](CCCNC(=N)N)NC(=O)[C@H](C)NC(=O)[C@H](CO)NC(=O)[C@H](CCCCN)NC(=O)CNC(=O)[C@H](C)NC(=O)[C@H](CC(=O)O)NC(=O)[C@H](C)NC(=O)[C@@H](N)Cc1ccc(O)cc1)C(=O)N[C@@H](Cc1ccccc1)C(=O)N[C@H](C(=O)N[C@@H](CCCCN)C(=O)NCC(=O)O)[C@@H](C)O [L10A] (H-YADAGKSARDVFTKG-OH)
Kd (BclxLΔLT): 4030 µM

Molecule: CC(C)C[C@H](NC(=O)[C@H](C)NC(=O)[C@H](C)NC(=O)[C@@H](N)Cc1ccc(O)cc1)C(=O)NCC(=O)N[C@@H](CCCCN)C(=O)N[C@@H](CO)C(=O)N[C@@H](C)C(=O)N[C@@H](CCCNC(=N)N)C(=O)N[C@@H](CC(=O)O)C(=O)N[C@H](C(=O)N[C@@H](Cc1ccccc1)C(=O)N[C@H](C(=O)N[C@@H](CCCCN)C(=O)NCC(=O)O)[C@@H](C)O)C(C)C [D9A] (H-YAALGKSARDVFTKG-OH)
Kd (BclxLΔLT): 1070 µM

Molecule: CC(C)C[C@H](NC(=O)[C@H](CC(=O)O)NC(=O)[C@H](C)NC(=O)[C@@H](N)Cc1ccc(O)cc1)C(=O)NCC(=O)N[C@@H](CCCCN)C(=O)N[C@@H](CO)C(=O)N[C@@H](C)C(=O)N[C@@H](CCCNC(=N)N)C(=O)N[C@@H](CC(=O)O)C(=O)N[C@H](C(=O)N[C@@H](Cc1ccccc1)C(=O)N[C@@H](C)C(=O)N[C@@H](CCCCN)C(=O)NCC(=O)O)C(C)C [T19A] (H-YADLGKSARDVFAKG-OH)
Kd (BclxLΔLT): 201 µM

Molecule: wild-type VDAC1-N peptide of the alanine scanning set
rescue of cBid-activated Bak pore formation inhibited by BclxL (liposome permeabilization), 100 µM peptide [2]: 80%

B4: Bad-BH3 peptide (residues 140–165) (peptide)
peptide: NLWAAQRYGRELRRMSDEFEGSFKGL
recovery of cBid-activated Bak pore formation inhibited by BclxL (liposome permeabilization); Bad-BH3 1 to 100 nM [4]: 50 nM

B5: VDAC1-N peptide (residues 1–26) (peptide, UniProt P21796 1-26, looked up)
peptide: MAVPPTYADLGKSARDVFTKGYGFGL
notes: VDAC1, human, N-terminal residues 1-26; Isotope-labelled (13C and 15N) for NMR; The same stretch 1-26 stands fused to the C-terminus of BclxLΔLT in m8; the row of the crystal structure uses m6 for that stretch; also called VDAC1-N (1–26); 15N-labeled VDAC1-N; source: E. coli, as His6-GB1-TEV fusion, Ni-NTA, TEV digestion, reverse Ni-NTA; not shown: His6, N-terminal, cleaved; GB1, N-terminal, …
binding result [5]: binds
binding result [6]: binds
